Data as given in patent publication US20120045459.

B1: GST-tagged recombinant PTPsigma catalytic fragment (PTPRS-CTF; BC104812 aa1156-1501) (protein)
chain: IVMVPLRKSRGGQFLTPLGSPEDMDLEELIQDISRLQRRSLRHSRQLEVPRPYIAARFSVLPPTFHPGDQKQYGGFDNRGLEPGHRYVLFVLAVLQKSEPTFAASPFSDPFQLDNPDPQPIVDGEEGLIWVIGPVLAVVFIICIVIAILLYKNKPDSKRKDSEPRTKCLLNNADLAPHHPKDPVEMRRINFQTPDSGLRSPLREPGFHFESMLSHPPIPIADMAEHTERLKANDSLKLSQEYESIDPGQQFTWEHSNLEVNKPKNRYANVIAYDHSRVILQPIEGIMGSDYINANYVDGYRCQNAYIATQGPLPETFGDFWRMVWEQRSATIVMMTRLEEKSRIKC
B2: PTP1B (from Upstate) (protein)
chain: MEMEKEFEQIDKSGSWAAIYQDIRHEASDFPCRVAKLPKNKNRNRYRDVSPFDHSRIKLHQEDNDYINASLIKMEEAQRSYILTQGPLPNTCGHFWEMVWEQKSRGVVMLNRVMEKGSLKCAQYWPQKEEKEMIFEDTNLKLTLISEDIKSYYTVRQLELENLTTQETREILHFHYTTWPDFGVPESPASFLNFLFKVRESGSLSPEHGPVVVHCSAGIGRSGTFCLADTCLLLMDKRKDPSSVDIKKVLLEMRKFRMGLIQTADQLRFSYLAVIEGAKFIMGDSSVQDQWKELSHEDLEPPPEHIPPPPRPPKRILEPHN
B3: GST-tagged recombinant full-length MTMR6 (NM-004685.2) (protein)
chain: MEHIRTTKVEQVKLLDRFSTSNKSLTGTLYLTATHLLFIDSHQKETWILHHHIASVEKLALTTSGCPLVIQCKNFRTVHFIVPRERDCHDIYNSLLQLSKQAKYEDLYAFSYNPKQNDSERLQGWQLIDLAEEYKRMGVPNSHWQLSDANRDYKICETYPRELYVPRIASKPIIVGSSKFRSKGRFPVLSYYHQDKEAAICRCSQPLSGFSARCLEDEHLLQAISKANPVNRYMYVMDTRPKLNAMANRAAGKGYENEDNYSNIRFQFVGIENIHVMRSSLQKLLEVNGTKGLSVNDFYSGLESSGWLRHIKAVMDAAIFLAKAITVENASVLVHCSDGWDRTSQVCSLGSLLLDSYYRTIKGFMVLIEKDWISFGHKFSERCGQLDGDPKEVSPVFTQFLECVWHLTEQFPQAFEFSEAFLLQIHEHIHSCQFGNFLGNCQKEREELKLKEKTYSLWPFLLEDQKKYLNPLYSSESHRFTVLEPNTVSFNFKFWRNMYHQFDRTLHPRQSVFNIIMNMNEQNKQLEKDIKDLESKIKQRKNKQTDGILTKELLHSVHPESPNLKTSLCFKEQTLLPVNDALRTIEGSSPADNRYSEYAEEFSKSEPAVVSLEYGVARMTC

Molecular target: phosphotyrosine peptide (Upstate)

Row | Protein | in vitro phosphatase activity (malachite green, released phosphate)
1 | B1 | exhibiting significant activity against a tyrosine-phosphorylated peptide (p-Tyr)
2 | B2 | PTP1B, a bona fide PTPase, dephosphorylated p-Tyr exclusively
3 | B3 | only negligible activity against p-Tyr
